Assay results: publication PMC1635299

Assays:
Msx2 = Msx2 (UniProt Q03358 1-267); experiment: EMSA
Dlx2 = Dlx2 (UniProt P40764 1-332); experiment: EMSA
Sequence of Dlx2 (P40764 whole entry): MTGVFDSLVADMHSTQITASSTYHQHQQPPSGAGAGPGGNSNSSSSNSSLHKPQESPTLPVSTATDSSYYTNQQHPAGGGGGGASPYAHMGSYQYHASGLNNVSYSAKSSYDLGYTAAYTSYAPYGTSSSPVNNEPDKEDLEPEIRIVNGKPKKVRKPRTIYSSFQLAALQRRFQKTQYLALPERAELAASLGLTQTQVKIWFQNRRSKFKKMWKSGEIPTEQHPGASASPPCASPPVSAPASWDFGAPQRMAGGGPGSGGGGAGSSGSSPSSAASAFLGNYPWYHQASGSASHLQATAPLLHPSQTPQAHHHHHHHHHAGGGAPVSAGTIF

Sequence of Msx2 (Q03358 whole entry): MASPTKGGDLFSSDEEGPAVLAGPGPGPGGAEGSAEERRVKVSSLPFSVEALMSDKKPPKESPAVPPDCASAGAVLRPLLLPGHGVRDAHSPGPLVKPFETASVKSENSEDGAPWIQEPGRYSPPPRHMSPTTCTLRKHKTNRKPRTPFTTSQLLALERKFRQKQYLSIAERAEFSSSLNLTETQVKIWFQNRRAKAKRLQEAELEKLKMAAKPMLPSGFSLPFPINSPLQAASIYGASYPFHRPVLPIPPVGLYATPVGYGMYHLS

B1: Msx2 promoter Dlx2 site probe (dsDNA)
DNA 1: GATCCGGGTAGAGATTAGTTGAATATCCCTTGGGGATC
DNA 2: GATCCCCAAGGGATATTCAACTAATCTCTACCCGGATC
B1: binds (Msx2); binds (Dlx2).
